How the values were obtained:
[1] = molecular target: T1, human TNFR2 expressed on cells (human, UniProt P20333 23-461); assay: flow cytometry, cell-expressed human TNFR2
T1 construct: whole, on cells; also called hTNFR2 (cell); CHO-TNFR2
T1 sequence (looked up): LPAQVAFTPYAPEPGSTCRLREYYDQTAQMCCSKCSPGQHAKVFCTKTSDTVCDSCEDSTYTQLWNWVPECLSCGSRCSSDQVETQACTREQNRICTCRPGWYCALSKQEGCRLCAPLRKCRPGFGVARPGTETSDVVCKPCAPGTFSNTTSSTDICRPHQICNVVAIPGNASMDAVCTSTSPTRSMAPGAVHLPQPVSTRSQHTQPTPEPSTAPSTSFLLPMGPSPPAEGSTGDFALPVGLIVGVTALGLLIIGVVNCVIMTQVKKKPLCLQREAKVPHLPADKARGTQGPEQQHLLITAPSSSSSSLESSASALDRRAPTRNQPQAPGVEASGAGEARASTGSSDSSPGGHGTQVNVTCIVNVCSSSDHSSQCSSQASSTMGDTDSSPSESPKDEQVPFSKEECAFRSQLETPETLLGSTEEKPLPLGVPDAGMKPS

[2] = molecular target: T1, human TNFR2 expressed on cells; assay: flow cytometry on cells expressing human TNFR2, MFI median
CD40 = CD40 (UniProt P25942 21-193, limits assumed); assay: ELISA on coated CD40, OD 650 nm
Procedure: (§1) To test binding to TNFR family members, target proteins were coated on ELISA plates at 1 μg/mL at 4° C. overnight. Plates were washed, blocked, and antibodies were added at indicated concentrations for 1 hour at RT. Positive control antibodies for each protein were used at ˜1 ug/mL. Antibodies were washed and detected with anti-human IgG HRP for 1 hour. Assay was developed using TMB substrate for 10 minutes. For cell-binding, human CD4+ T cells purified from buffy coats were cultured in flat-bottom plates with anti-CD3/CD28 for 24 hours. Cells were harvested and stained for viability, CD4, CD25 and FOXP3. Test antibody staining was detected using anti-human IgG APC. Binding titration of test antibodies was evaluated on CD4+CD25hiFOXP3+ regulatory T cells and plotted as percent binding.

[3] = molecular target: T1, human TNFR2 expressed on cells; assay: cell binding on TNFR2-overexpressing (OE) cells
[4] = molecular target: T1, human TNFR2 expressed on cells; assay: Primary Cell Affinity; binding titration on activated human Tregs, flow cytometry
Procedure: as §1

[5] = molecular target: T2, human TNFR2-His tagged protein (soluble) (human, UniProt P20333 23-257); assay: ELISA, soluble human TNFR2
T2 construct: also called hTNFR2 (soluble); soluble TNFR2-His; not shown: His tag
T2 sequence (looked up): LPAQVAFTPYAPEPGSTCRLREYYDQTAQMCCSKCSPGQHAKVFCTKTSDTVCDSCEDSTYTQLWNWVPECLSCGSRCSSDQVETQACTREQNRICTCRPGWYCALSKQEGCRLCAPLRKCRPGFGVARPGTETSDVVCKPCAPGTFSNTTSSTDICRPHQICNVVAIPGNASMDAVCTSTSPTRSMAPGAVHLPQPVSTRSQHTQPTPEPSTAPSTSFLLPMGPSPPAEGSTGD

[6] = molecular target: T1, human TNFR2 expressed on cells; assay: cell-based or functional assay
[7] = molecular target: T3, human TNFR1-His tagged protein (human, UniProt P19438 30-211, limits assumed); assay: ELISA on coated TNFR1, OD 450 nm
T3 construct: also called soluble human TNFR1; not shown: His tag
T3 sequence (looked up): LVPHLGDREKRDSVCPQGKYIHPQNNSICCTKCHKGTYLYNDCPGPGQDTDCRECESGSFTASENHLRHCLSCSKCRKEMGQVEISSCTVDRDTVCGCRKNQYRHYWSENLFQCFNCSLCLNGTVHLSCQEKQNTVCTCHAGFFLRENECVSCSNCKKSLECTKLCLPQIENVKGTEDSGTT
Procedure: as §1

Sequence of CD40 (P25942 21-193 limits assumed): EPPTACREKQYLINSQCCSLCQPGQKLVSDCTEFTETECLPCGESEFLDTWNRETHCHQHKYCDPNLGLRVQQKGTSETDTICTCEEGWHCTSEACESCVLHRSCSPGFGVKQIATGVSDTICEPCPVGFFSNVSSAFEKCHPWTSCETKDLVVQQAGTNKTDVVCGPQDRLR

B1: humanized antibody h600-25-71 (antibody, V domains shown)
VH: EVQLVESGGGLVQPGGSLRLSCAASGIDLSSYAMGWVRQAPGKGLEWVGDISTSGNAYYATWVKGRFTISRDNSKNTLYLQMNSLRAEDTAVYYCARADYGGETYAFDPWGQGTLVTVSS
VL: DIQMTQSPSSLSASVGDRVTITCQASQSISSYLNWYQQKPGKAPKLLIYSASTLASGVPSRFSGSGSGTDFTLTISSLQPEDFATYYCQQGYSDSNIDNVFGGGTKVEIK
notes: also called Ab 25-71; clone 25-71
Which EC50 [1] does the source give for B1 here?
Its EC50 is 0.242 nM.

What about the “EC50 (read off the curve)” value [2] of the same binder?
The value was roughly 0.3 nM.

Does B1 bind (CD40)?
Result: no binding (tested: about 67 nM)

What about the Kd [3] of the same binder?
Its Kd is 0.12 nM.

And the Kd [4]?
The Kd was 0.047 nM.

And the EC50 [5]?
Its EC50 is 0.159 nM.

And the “ADCC EC50 (reporter line)” value [6]?
The value was 1.14 nM.

And the “ADCP EC50” value [6]?
The value was 0.71 nM.

Does B1 bind [7]?
Result: no binding (tested: about 67 nM)
